# Laboratory results from patent US20260042834A1, “ANTI-CORTICOTROPIN-RELEASING HORMONE ANTIBODIES AND POLYCYSTIC OVARY SYNDROME” (HBM ALPHA THERAPEUTICS, INC., priority 2022, published 2026).
# Substitutions are numbered along the chain they refer to. Read-outs that look alike come from different tables or passages of the source.
# T1: biotinylated CRH (Homo sapiens, UniProt P06850)
# T1 construct: purchased GL Biochem 784751
# T1 sequence (P06850 154-194): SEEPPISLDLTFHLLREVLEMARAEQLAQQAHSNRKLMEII
# B1: PR302038: humanized variant of Series 5 mAb PR301777; VH SEQ ID NO: 256, VL SEQ ID NO: 311 (antibody, V domains shown)
# VH: EMQLVESGGGLVQPGGSLRLSCAASGFTFSNYWMNWVRQAPGKGLEWVAEIRLKSNNYATHYAESVKGRFTISRDDSKSSVYLQMNSLKTEDTAVYYCTVGTLVYWGQGTLVTVSS
# VL: EIVLTQSPATLSLSPGERATLSCRASQSVSTSTYNYMHWFQQKPGQAPRLLIKFASNLESGIPARFSGSGSGTDFTLTISSLEPEDTAVYYCQHSWEIPYTFGQGTKLEIK
# modifications: PR302036 VH, PR302038 VH, PR302041 VH; PR302031 VL, PR302038 VL, PR302045 VL, PR302052 VL, PR302066 VL
# B2: PR302309-8: humanized variant of Series 7 mAb PR302309; VH SEQ ID NO: 261, VL SEQ ID NO: 318 (antibody, V domains shown)
# VH: QIQLVQSGSELKKPGASVKVSCKASGYTFTNYGMNWVRQAPGQGLEWMGWINTYTGEPIYTDDFKGRFVFSLDTSVSTAYLQISSLKAEDTAVYYCSRSTMITTGGVFAYWGQGTLVTVSS
# VL: DVVMTQSPLSLPVTLGQPASISCRSSQTIVHSDGNTYLEWYQQRPGQSPRLLIYKVSNRFSGVPDRFSGSGSGTDFTLKISRVEAEDLGVYYCFQGSHVPWTFGGGTKVEIK
# modifications: PR302309-10 VH, PR302309-11 VH, PR302309-12 VH, PR302309-14 VH,PR302309-7 VH, PR302309-8 VH, PR302309-9 VH; PR302309-17 VL, PR302309-18 VL, PR302309-19 VL, PR302309-2 VL,PR302309-8 VL
# B3: PR302309-11: humanized variant of Series 7 mAb PR302309; VH SEQ ID NO: 261, VL SEQ ID NO: 315 (antibody, V domains shown)
# VH: B2 VH
# VL: B2 VL with V2I, S7T, L11S, Y41L, S48P, S72A, L88V
# modifications: PR302309-10 VH, PR302309-11 VH, PR302309-12 VH, PR302309-14 VH,PR302309-7 VH, PR302309-8 VH, PR302309-9 VH; PR302309-11 VL, PR302309-5 VL
# What was measured:
# [1] = system: human CRHR2; test: CRH-induced luciferase reporter blocking assay, CHO-CRE-hCRHR2 cells; type: cell-based; details: CHO-CRE-hCRHR2 cells, 0.1 nM CRH
# Outline: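 CHO-CRE reporter cells stably expressing mouse or human CRHR2 were treated with serially diluted antibodies (8 points, 1:4) plus CRH at final 5 nM (mCRHR2) or 0.1 nM (hCRHR2), 4-6 hours at 37° C. CRE-driven luciferase read by luminescence after 10 min with detection reagent.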
# [2] = system: mouse CRHR2; test: CRH-induced luciferase reporter blocking assay, CHO-CRE-mCRHR2 cells; type: cell-based; details: CHO-CRE-mCRHR2 cells, 5 nM CRH
# Outline: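 CHO-CRE cells stably expressing mouse CRHR2 were seeded overnight, then given serially diluted antibodies (8 points, 1:4) together with CRH at 5 nM final. After 4–6 h at 37 °C, CRE-driven luciferase was read by Bio-Glo luminescence.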
# [3] = system: constitutively high plasma ACTH in Mrap1 KO mice; test: Mrap1 KO mice constitutively high ACTH model; type: in vivo, mouse; details: 20 mg/kg and 5 mg/kg, day 2 and day 16
# Experimental: 8-10 week old wildtype female C57BL/6 mice were obtained from Charles River Laboratories. Mrap1 KO mice were obtained from Queen Mary University of London, UK. SSR125543A, a small molecule CRHR1 antagonist, was obtained from Axon Medchem (Cat #Axon 1799). Mouse Corticosterone (55-Corms-E01) and adrenocorticotropic hormone (ACTH) ELISA kits (21-ACTHU-E01) were obtained from ALPCO, USA. All procedures were carried out in accordance with the Guide for the Care and Use of Laboratory Animals of the National Institutes of Health. Protocols were approved by Charles River Laboratories Institutional Animal Care and Use Committee (IACUC).
# To generate Mrap1 KO mice, Mrap1−/− male mice were bred with Mrap1+/− female mice. Corticosterone hormone replacement was performed by administering 50 μg/ml in drinking water to breeder cages when female mice were pregnant and their pregnancies palpable (approximately embryonic day 10). Drinking water was changed weekly, and treatment was stopped at weaning. Mice were uniquely identified with ear tags at the time of tail clipping to match future genotype with each mouse. DNA was extracted from tail tissue and used to genotype mice.
# […] On day 2 or 3, 14 and 28, 200 μl of blood was collected in EDTA tubes from the submandibular vein of each mouse. Plasma was separated using a refrigerated centrifuge (4° C. at 500×g for 10 min) and snap-frozen in dry ice for subsequent ACTH ELISA measurement.
# [4] = system: human CRHR1 (hUCN1-induced); test: Human UCN1-induced luciferase reporter assay, CHO-CRE-hCRHR1 cells; type: cell-based; details: Table 10; 1 nM hUCN1
# Experimental: CHO-CRE-hCRHR1 and CHO-CRE-hCRHR2 cells were harvested with trypsin-EDTA (Life Technologies, Cat #:12604-013). Cells were centrifuged at 1,000 rpm for 5 min and resuspended in growth medium. Cells were counted using a cell counter, seeded at 5,000 cells per 100 μl to 96-well flat plates, and incubated overnight. 50 μl of 4× serially diluted antibody (8 points, 1/3 diluted by growth medium) or CP 376395 hydrochloride (TOCRIS, Cat #:3212) (8 points, 1/10 diluted by growth medium) was added to plates, followed by 50 μl 4×hUCN1 (4× is 4 nM, final is 1 nM) to CHO-CRE-hCRHR1 cells or CHO-CRE-hCRHR2 cells. Plates were then incubated for 4-6 hours at 37° C. in a CO2 incubator. Following this, 60 μl of culture medium was removed, to which was added 60 μl of Bio-Glo luciferase, followed by incubation for 10 min at RT. Plates were then read in a luciferase plate reader (EnVision, PerkinElmer).
# [5] = target: T2, N-terminal region plus central region, central region only, central region plus C-terminal region of CRH (Homo sapiens, UniProt P06850); test: ELISA determining the binding region of CRH; details: dash = no binding
# T2 construct: N-terminal region plus the central region (CT biotin), the central region only (NT biotin or CT biotin)
# Experimental: Streptavidin (Thermo, Cat: 21125) was diluted in PBS to a concentration of 2 μg/ml. 100 μl of diluted streptavidin was added per well to ELISA microplates, and the plates were incubated overnight at 4° C. Plates were blocked with ELISA blocking solution (containing 2% w/v BSA, 0.05% (v/v) Tween-20, pH 7.4 PBS buffer) at 37° C. for 1 hour, and then incubated with 1 μg/mL N-terminal region plus the central region (CT biotin), the central region only (NT biotin or CT biotin), or the central region plus C-terminal region (NT biotin) of CRH for 1 hour at 37° C. Plates were then washed and incubated with diluted anti-CRH antibody (Ab) at 15 μg/ml (100 nM, 10 diluted, 8 points) for 1 hour at 37° C. Subsequently, plates were washed and incubated with HRP-conjugated goat anti-human IgG (H+L) antibody (Jackson, Cat: 109-035-088) at 37° C. for 1 hour. 100 μL of 3,3′,5,5′-tetramethylbenzidine (TMB) substrate (Biopanda, Cat: TMB-S-003) was added, and the plates were incubated at room temperature for 15 minutes. 100 μL of ELISA stopping solution (Solarbio, Cat #: C1058) was added to terminate the reaction, and the optical density at 450 nm (OD450 nm) was determined by an ELISA plate reader (Molecular Devices, Spectra max 384 plus).
# [6] = target: T1, biotinylated CRH; test: Affinity determination with Octet; type: binding
# Experimental: Octet® Red 96e was used for affinity measurement. Octet® running buffer was prepared by diluting kinetics buffer 10× (Fortebio, Cat #18-1105) in PBS according to the manufacturer's instructions. Two columns of SA sensors (Fortebio, Cat #18-5019) were hydrated in running buffer for 10 mins, one for ligand capturing and the other for reference. Antibodies were 2-fold diluted and added into a 96-well plate. 30 nM biotinylated CRH (GL Biochem, Cat #784751) was captured by the first column of SA sensors for 20 seconds, while reference sensors were dipped into buffer wells. After a 60-second baseline step, sensors were dipped into analyte and buffer wells successively, with the association and dissociation time of 180 seconds and 800 seconds, respectively. Sensors were regenerated in glycine pH1.5 (Cytiva, Cat #BR-1003-54) before the next cycle. […] Signals of reference wells and reference sensors were subtracted by selecting “Double reference” before data fitting.
# [7] = central plus C-terminal region CRH peptide, NT-biotin (SEQ ID NO: 483), read-out: ELISA EC50 C-Ter-CRH (NT-Bion)
# [8] = central region CRH peptide, CT-biotin (SEQ ID NO: 485), read-out: ELISA EC50 Central-CRH (CT-Bion)
# [9] = central region CRH peptide, NT-biotin (SEQ ID NO: 484), read-out: ELISA EC50 Central-CRH (NT-Bion)
Molecule,IC50 [1] [nM],IC50 [2] [nM],"plasma ACTH concentrations in Mrap1 KO mice, dose dependence [3]",CHO-CRE-hCRHR1 1 nM hUCH1 IC50 [4],"EC50 [5, 7] [nM]","EC50 [5, 8] [nM]","EC50 [5, 9] [nM]",kdis [6] [s⁻¹],kon [6] [M⁻¹ s⁻¹]
B1,5.96,6.17,"reduced plasma ACTH concentrations in Mrap1 KO mice, in a dose dependent manner",–,–,–,–,–,–
B2,–,–,–,No Inhibition,> 100,> 100,> 100,0.000136,266000
B3,–,–,–,No Inhibition,> 100,> 100,> 100,–,154000
